Experimental findings from patent US20220025381A1 are described below.

Common to all, as to assay: cell-based or functional assay
In assay [1] the target is CD176 PV1-tandem CaffVHH-L1-iCre-271C-NLS-BGHpA.
The target in assay [2] is CD92 PV1-CaffVHH-L1-iCre-271C-NLS-BGHpA.
Assay [3] concerns the target T1, CD244 PV1-GAI-L1-RfxCas13d-560C-NLS-BGHpA.
T1 sequence: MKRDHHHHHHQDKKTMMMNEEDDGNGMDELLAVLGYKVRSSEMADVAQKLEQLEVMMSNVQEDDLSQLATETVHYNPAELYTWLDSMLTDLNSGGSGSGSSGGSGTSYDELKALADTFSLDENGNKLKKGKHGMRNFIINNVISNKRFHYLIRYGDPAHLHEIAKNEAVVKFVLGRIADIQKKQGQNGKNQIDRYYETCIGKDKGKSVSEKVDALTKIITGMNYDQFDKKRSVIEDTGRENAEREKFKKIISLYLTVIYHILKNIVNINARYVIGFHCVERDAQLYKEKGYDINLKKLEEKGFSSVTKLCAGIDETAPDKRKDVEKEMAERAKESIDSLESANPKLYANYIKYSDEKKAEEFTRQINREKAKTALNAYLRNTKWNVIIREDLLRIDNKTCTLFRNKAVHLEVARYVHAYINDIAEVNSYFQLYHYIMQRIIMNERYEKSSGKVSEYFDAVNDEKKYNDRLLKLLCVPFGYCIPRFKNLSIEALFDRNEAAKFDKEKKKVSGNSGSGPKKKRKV

Assay [4] concerns the target T2, CD246 PV1-GAI-L1-RfxCas13d-566C-NLS-BGHpA.
T2 sequence: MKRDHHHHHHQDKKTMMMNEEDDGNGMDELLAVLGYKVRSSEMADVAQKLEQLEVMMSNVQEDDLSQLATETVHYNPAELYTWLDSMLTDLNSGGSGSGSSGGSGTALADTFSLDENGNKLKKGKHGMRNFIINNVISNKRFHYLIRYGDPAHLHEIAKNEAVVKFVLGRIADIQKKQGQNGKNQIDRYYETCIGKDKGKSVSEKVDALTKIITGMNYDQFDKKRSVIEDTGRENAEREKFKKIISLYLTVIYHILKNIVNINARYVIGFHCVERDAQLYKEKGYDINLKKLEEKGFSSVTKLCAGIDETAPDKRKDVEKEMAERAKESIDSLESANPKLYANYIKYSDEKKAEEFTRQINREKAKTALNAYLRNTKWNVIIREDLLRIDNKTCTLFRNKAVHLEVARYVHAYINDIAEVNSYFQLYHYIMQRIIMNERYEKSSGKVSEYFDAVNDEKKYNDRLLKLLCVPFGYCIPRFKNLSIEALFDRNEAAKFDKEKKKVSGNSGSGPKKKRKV

The target in assay [5] is T3, CD374 PV1-RfxCas13d-560C-NLS-BGHpA.
T3 sequence: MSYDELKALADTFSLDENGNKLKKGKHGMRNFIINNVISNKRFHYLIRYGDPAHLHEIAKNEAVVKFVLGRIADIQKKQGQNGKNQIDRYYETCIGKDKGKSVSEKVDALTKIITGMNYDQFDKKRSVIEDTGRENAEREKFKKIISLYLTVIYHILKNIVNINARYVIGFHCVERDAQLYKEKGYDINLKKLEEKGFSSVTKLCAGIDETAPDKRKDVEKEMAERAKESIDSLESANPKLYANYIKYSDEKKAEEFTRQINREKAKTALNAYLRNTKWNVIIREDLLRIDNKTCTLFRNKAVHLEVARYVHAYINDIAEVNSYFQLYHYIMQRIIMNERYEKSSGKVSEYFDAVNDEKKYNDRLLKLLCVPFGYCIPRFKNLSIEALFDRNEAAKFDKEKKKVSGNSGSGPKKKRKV

Chain of CD92 PV1-CaffVHH-L1-iCre-271C-NLS-BGHpA (chain, as listed by the source): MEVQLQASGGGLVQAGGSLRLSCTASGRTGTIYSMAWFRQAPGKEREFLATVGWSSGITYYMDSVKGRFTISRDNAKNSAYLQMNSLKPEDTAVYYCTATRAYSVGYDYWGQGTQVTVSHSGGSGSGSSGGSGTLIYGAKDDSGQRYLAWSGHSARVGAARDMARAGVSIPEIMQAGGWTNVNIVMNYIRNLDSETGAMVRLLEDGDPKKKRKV
Chain of CD176 PV1-tandem CaffVHH-L1-iCre-271C-NLS-BGHpA (chain, as listed by the source): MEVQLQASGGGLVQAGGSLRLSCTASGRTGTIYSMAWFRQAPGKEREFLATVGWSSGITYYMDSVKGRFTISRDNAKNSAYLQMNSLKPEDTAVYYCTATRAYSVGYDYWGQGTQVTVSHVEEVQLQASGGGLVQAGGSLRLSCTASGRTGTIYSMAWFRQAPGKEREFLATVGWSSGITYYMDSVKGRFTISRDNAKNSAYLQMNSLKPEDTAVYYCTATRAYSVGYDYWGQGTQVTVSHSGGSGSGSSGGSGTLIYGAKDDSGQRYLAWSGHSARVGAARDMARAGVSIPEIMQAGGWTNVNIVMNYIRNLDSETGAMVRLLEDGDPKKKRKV

B1: CD175 PV1-iCre-N270-L1-tandem CaffVHH-NLS-BGHpA (protein)
chain: MSNLLTVHQNLPALPVDATSDEVRKNLMDMFRDRQAFSEHTWKMLLSVCRSWAAWCKLNNRKWFPAEPEDVRDYLLYLQARGLAVKTIQQHLGQLNMLHRRSGLPRPSDSNAVSLVMRRIRKENVDAGERAKQALAFERTDFDQVRSLMENSDRCQDIRNLAFLGIAYNTLLRIAEIARIRVKDISRTDGGRMLIHIGRTKTLVSTAGVEKALSLGVTKLVERWISVSGVADDPNNYLFCRVRKNGVAAPSATSQLSTRALEGIFEATHRSGGSGSGSSGGSGTMEVQLQASGGGLVQAGGSLRLSCTASGRTGTIYSMAWFRQAPGKEREFLATVGWSSGITYYMDSVKGRFTISRDNAKNSAYLQMNSLKPEDTAVYYCTATRAYSVGYDYWGQGTQVTVSHVEEVQLQASGGGLVQAGGSLRLSCTASGRTGTIYSMAWFRQAPGKEREFLATVGWSSGITYYMDSVKGRFTISRDNAKNSAYLQMNSLKPEDTAVYYCTATRAYSVGYDYWGQGTQVTVSHPKKKRKV
Consider B1, for which, in assay [1], the caffeine concentration at maximum recombination efficiency worked out at 20 µM caffeine and the recombination against the single CaffVHH version, same induction conditions is < 13 fold.

B2: CD91 PV1-iCre-N270-L1-CaffVHH-NLS-BGHpA (protein)
chain: MSNLLTVHQNLPALPVDATSDEVRKNLMDMFRDRQAFSEHTWKMLLSVCRSWAAWCKLNNRKWFPAEPEDVRDYLLYLQARGLAVKTIQQHLGQLNMLHRRSGLPRPSDSNAVSLVMRRIRKENVDAGERAKQALAFERTDFDQVRSLMENSDRCQDIRNLAFLGIAYNTLLRIAEIARIRVKDISRTDGGRMLIHIGRTKTLVSTAGVEKALSLGVTKLVERWISVSGVADDPNNYLFCRVRKNGVAAPSATSQLSTRALEGIFEATHRSGGSGSGSSGGSGTMEVQLQASGGGLVQAGGSLRLSCTASGRTGTIYSMAWFRQAPGKEREFLATVGWSSGITYYMDSVKGRFTISRDNAKNSAYLQMNSLKPEDTAVYYCTATRAYSVGYDYWGQGTQVTVSHPKKKRKV
For the molecule B2, in assay [2], the Cre reporter expression, share of transfected cells, 25 uM caffeine for 5 hours (% of transfected cells) was found to be 30; the Cre reporter turned on, share of transfected cells, caffeine at least 50 uM, induction at least 5 hours (% of transfected cells) came out at 38; the Cre reporter turned on, share of transfected cells, with caffeine, 48 hours (% of transfected cells) is > 80; the caffeine concentration able to turn on Cre activity and generate reporter expression in 48 hours amounted to 0.1 µM caffeine. For the same molecule, the caffeine concentration at which similar, if not less, recombination efficiency was reached (single CaffVHH) in assay [2] is 500 µM caffeine.

B3: CD243 PV1-RfxCas13d-N559-L1-GID-NLS-BGHpA (protein)
chain: MIEKKKSFAKGMGVKSTLVSGSKVYMTTFAEGSDARLEKIVEGDSIRSVNEGEAFSAEMADKNAGYKIGNAKFSHPKGYAVVANNPLYTGPVQQDMLGLKETLEKRYFGESADGNDNICIQVIHNILDIEKILAEYITNAAYAVNNISGLDKDIIGFGKFSTVYTYDEFKDPEHHRAAFNNNDKLINAIKAQYDEFDNFLDNPRLGYFGQAFFSKEGRNYIINYGNECYDILALLSGLRHWVVHNNEEESRISRTWLYNLDKNLDNEYISTLNYLYDRITNELTNSFSKNSAANVNYIAETLGINPAEFAEQYFRFSIMKEQKNLGFNITKLREVMLDRKDMSEIRKNHKVFDSIRTKVYTMMDFVIYRYYIEEDAKVAAANKSLPDNEKSLSEKDIFVINLRGSFNDDQKDALYYDEANRIWRKLENIMHNIKEFRGNKTREYKKKDAPRLPRILPAGRDVSAFSKLMYALTMFLDGKEINDLLTTLINKFDNIQSFLKVMPLIGVNAKFVEEYAFFKDSAKIADELRLIKSFARMGEPIADARRAMYIDAIRILGTNLSGGSGSGSSGGSGTMAASDEVNLIESRTVVPLNTWVLISNFKVAYNILRRPDGTFNRHLAEYLDRKVTANANPVDGVFSFDVLIDRRINLLSRVYRPAYADQEQPPSILDLEKPVDGDIVPVILFFHGGSFAHSSANSAIYDTLCRRLVGLCKCVVVSVNYRRAPENPYPCAYDDGWIALNWVNSRSWLKSKKDSKVHIFLAGDSSGGNIAHNVALRAGESGIDVLGNILLNPMFGGNERTESEKSLDGKYFVTVRDRDWYWKAFLPEGEDREHPACNPFSPRGKSLEGVSFPKSLVVVAGLDLIRDWQLAYAEGLKKAGQEVKLMHLEKATVGFYLLPNNNHFHNVMDEISAFVNAECPKKKRKV
With B3, in assay [3], the basal knockdown of mCherry induced by gRNA, no gibberellin was in the range of 10 to 20% and the drug-induced knockdown of mCherry with gRNA was > 75%.

B4: CD245 PV1-RfxCas13d-N565-L1-GID-NLS-BGHpA (protein)
chain: MIEKKKSFAKGMGVKSTLVSGSKVYMTTFAEGSDARLEKIVEGDSIRSVNEGEAFSAEMADKNAGYKIGNAKFSHPKGYAVVANNPLYTGPVQQDMLGLKETLEKRYFGESADGNDNICIQVIHNILDIEKILAEYITNAAYAVNNISGLDKDIIGFGKFSTVYTYDEFKDPEHHRAAFNNNDKLINAIKAQYDEFDNFLDNPRLGYFGQAFFSKEGRNYIINYGNECYDILALLSGLRHWVVHNNEEESRISRTWLYNLDKNLDNEYISTLNYLYDRITNELTNSFSKNSAANVNYIAETLGINPAEFAEQYFRFSIMKEQKNLGFNITKLREVMLDRKDMSEIRKNHKVFDSIRTKVYTMMDFVIYRYYIEEDAKVAAANKSLPDNEKSLSEKDIFVINLRGSFNDDQKDALYYDEANRIWRKLENIMHNIKEFRGNKTREYKKKDAPRLPRILPAGRDVSAFSKLMYALTMFLDGKEINDLLTTLINKFDNIQSFLKVMPLIGVNAKFVEEYAFFKDSAKIADELRLIKSFARMGEPIADARRAMYIDAIRILGTNLSYDELKSGGSGSGSSGGSGTMAASDEVNLIESRTVVPLNTWVLISNFKVAYNILRRPDGTFNRHLAEYLDRKVTANANPVDGVFSFDVLIDRRINLLSRVYRPAYADQEQPPSILDLEKPVDGDIVPVILFFHGGSFAHSSANSAIYDTLCRRLVGLCKCVVVSVNYRRAPENPYPCAYDDGWIALNWVNSRSWLKSKKDSKVHIFLAGDSSGGNIAHNVALRAGESGIDVLGNILLNPMFGGNERTESEKSLDGKYFVTVRDRDWYWKAFLPEGEDREHPACNPFSPRGKSLEGVSFPKSLVVVAGLDLIRDWQLAYAEGLKKAGQEVKLMHLEKATVGFYLLPNNNHFHNVMDEISAFVNAECPKKKRKV
Turning to B4, in assay [4], the basal knockdown of mCherry induced by gRNA, no gibberellin fell in the range of 10 to 20% and the drug-induced knockdown of mCherry with gRNA was > 75%.

B5: CD373 PV1-RfxCas13d-N559-NLS-BGHpA (protein)
chain: MIEKKKSFAKGMGVKSTLVSGSKVYMTTFAEGSDARLEKIVEGDSIRSVNEGEAFSAEMADKNAGYKIGNAKFSHPKGYAVVANNPLYTGPVQQDMLGLKETLEKRYFGESADGNDNICIQVIHNILDIEKILAEYITNAAYAVNNISGLDKDIIGFGKFSTVYTYDEFKDPEHHRAAFNNNDKLINAIKAQYDEFDNFLDNPRLGYFGQAFFSKEGRNYIINYGNECYDILALLSGLRHWVVHNNEEESRISRTWLYNLDKNLDNEYISTLNYLYDRITNELTNSFSKNSAANVNYIAETLGINPAEFAEQYFRFSIMKEQKNLGFNITKLREVMLDRKDMSEIRKNHKVFDSIRTKVYTMMDFVIYRYYIEEDAKVAAANKSLPDNEKSLSEKDIFVINLRGSFNDDQKDALYYDEANRIWRKLENIMHNIKEFRGNKTREYKKKDAPRLPRILPAGRDVSAFSKLMYALTMFLDGKEINDLLTTLINKFDNIQSFLKVMPLIGVNAKFVEEYAFFKDSAKIADELRLIKSFARMGEPIADARRAMYIDAIRILGTNLPKKKRKV
B5: the gRNA induced knockdown of mCherry without CID domains in assay [5] is < 80%.
